Earlier results, collected in article PMC10825016.
Where two headings read alike, the source gives them in different places.

Columns and labels:
GrpE (Escherichia coli) [1] = target: GrpE (Escherichia coli) (UniProt P09372)
GrpE (Escherichia coli) [2] = target: GrpE (Escherichia coli) (UniProt P09372); remark: listed apart in the source

Chain of GrpE (Escherichia coli) (P09372 whole entry): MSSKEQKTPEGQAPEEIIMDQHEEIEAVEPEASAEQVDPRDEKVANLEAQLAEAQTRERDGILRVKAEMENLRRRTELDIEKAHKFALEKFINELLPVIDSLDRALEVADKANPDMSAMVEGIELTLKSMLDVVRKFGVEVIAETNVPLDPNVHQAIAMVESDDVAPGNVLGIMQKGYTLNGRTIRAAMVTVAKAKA
Chain of DnaK (P0A6Y8 2-638): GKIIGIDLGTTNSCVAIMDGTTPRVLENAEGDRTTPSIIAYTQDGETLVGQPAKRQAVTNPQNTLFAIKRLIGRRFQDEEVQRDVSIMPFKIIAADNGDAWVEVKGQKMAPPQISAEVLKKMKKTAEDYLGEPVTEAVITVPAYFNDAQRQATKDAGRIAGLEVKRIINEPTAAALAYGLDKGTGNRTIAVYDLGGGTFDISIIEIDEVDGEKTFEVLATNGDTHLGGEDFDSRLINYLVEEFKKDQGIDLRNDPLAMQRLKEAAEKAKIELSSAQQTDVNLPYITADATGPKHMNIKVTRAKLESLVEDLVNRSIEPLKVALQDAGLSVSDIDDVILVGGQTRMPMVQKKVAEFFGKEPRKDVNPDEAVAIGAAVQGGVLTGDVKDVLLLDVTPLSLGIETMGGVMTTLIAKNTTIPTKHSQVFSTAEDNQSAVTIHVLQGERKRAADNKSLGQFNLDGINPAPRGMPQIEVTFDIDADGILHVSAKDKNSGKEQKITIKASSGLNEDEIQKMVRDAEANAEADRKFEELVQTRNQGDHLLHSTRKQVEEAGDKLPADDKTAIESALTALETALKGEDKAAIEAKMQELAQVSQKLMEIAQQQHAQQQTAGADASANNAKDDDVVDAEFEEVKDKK

- Kd (GrpE (Escherichia coli) [1]): 11 nM
- Kd (GrpE (Escherichia coli) [2]): 220 nM
Substance: DnaK (from UniProt P0A6Y8)
